Laboratory results from PMC5690661, “The PrpF protein of Shewanella oneidensis MR-1 catalyzes the isomerization of 2-methyl-cis-aconitate during the catabolism of propionate via the AcnD-dependent 2-methylcitric acid cycle” (PLoS ONE, 2017).

Assays:
[1] = target: T1, SoPrpF (Shewanella oneidensis, UniProt Q8EJW4); assay: HPLC time course; coupled aconitase assay; assay type: biochemical; details: substrate is the SoAcnD product of 2-methylcitrate; Tris-HCl 50 mM pH 8.0, KCl 100 mM
T1 construct: gene prpF; recombinant from pPRP196 (pTEV4, N-terminal TEV-cleavable H6 tag), purified as in earlier work; homodimer
T1 sequence (Q8EJW4 whole entry): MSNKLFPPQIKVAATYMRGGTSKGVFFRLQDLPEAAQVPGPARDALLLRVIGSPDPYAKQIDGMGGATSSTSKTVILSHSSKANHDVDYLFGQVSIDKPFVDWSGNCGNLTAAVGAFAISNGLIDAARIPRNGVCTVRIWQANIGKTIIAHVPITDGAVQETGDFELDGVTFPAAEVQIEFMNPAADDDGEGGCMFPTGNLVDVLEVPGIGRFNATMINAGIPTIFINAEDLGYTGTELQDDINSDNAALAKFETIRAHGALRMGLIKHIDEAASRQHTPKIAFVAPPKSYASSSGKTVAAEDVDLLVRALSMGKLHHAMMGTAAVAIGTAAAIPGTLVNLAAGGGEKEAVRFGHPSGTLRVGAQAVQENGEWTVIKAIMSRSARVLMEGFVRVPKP

[2] = target: T2, SePrpD (Salmonella enterica, UniProt P74840); assay: HPLC of reaction products; assay type: biochemical; details: 5 mM substrate, Tris-HCl 90 mM pH 8.0, 37°C, 1.5 h
T2 construct: gene prpD; recombinant, His-tagged, purified from E. coli
T2 sequence (P74840 1-483): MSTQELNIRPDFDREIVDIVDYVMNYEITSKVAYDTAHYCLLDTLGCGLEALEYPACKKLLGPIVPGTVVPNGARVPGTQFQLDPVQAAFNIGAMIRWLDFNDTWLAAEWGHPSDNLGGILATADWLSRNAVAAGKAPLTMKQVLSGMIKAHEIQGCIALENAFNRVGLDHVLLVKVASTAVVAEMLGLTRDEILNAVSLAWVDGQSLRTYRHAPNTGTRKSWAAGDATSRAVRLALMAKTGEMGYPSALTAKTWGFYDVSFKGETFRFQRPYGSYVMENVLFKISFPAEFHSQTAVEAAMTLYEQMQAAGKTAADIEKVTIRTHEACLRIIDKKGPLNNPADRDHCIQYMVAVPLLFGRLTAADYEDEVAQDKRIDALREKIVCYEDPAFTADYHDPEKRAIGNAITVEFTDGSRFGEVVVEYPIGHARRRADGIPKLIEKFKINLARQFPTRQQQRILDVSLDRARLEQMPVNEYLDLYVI

[3] = test system: C/C(C(=O)O)=C(\CC(=O)O)C(=O)O; assay: purified protein; details: Tris-HCl 50 mM pH 8.0, KCl 100 mM, 37°C, Fe/S-reactivated enzyme
[4] = substrate: O=C(O)/C=C(/CC(=O)O)C(=O)O; assay: purified protein; details: Tris-HCl 50 mM pH 8.0, KCl 100 mM, 37°C, Fe/S-reactivated enzyme
[5] = target: the molecule itself; assay: crystal structure; hanging drop vapor diffusion, MES 100 mM pH 6.0, sodium malonate 136 mM, PEG 4K 15% w/v, room temperature; space group P2(1), two chains in the asymmetric unit related by a non-crystallographic twofold axis; 1.22 Å

In the case of C/C(C(=O)O)=C(\CC(=O)O)C(=O)O [2-methyl-cis-aconitate], the “HPLC time course; coupled aconitase assay” value [1] is reported as “SoPrpF converted the SoAcnD reaction product into 2-methyl-cis-aconitate over time”.

With CC(C(=O)O)C(O)(CC(=O)O)C(=O)O (stereo not shown) [2-methylcitrate] the “HPLC of reaction products” value [2] was “SePrpD synthesized 2-methyl-cis-aconitate from 2-methylcitrate”.

With “SeAcnA (Salmonella enterica subsp. enterica serovar Typhimurium str. LT2)” the Km [3] was 210 ± 35 µM, the Vmax [3] was 50 µM/min and the kcat [3] was 11.8 ± 0.7 s⁻¹. For the same molecule, the kcat/Km [3] was 56700 M⁻¹ s⁻¹.

In the case of “SeAcnB (Salmonella enterica subsp. enterica serovar Typhimurium str. LT2)”, the Km [3] is reported as 208 ± 39 µM, the Vmax [3] is reported as 10 µM/min and the kcat [3] is reported as 6.6 ± 0.667 s⁻¹. The kcat/Km [3] was 31700 M⁻¹ s⁻¹.

B1: SeAcnA (Salmonella enterica subsp. enterica serovar Typhimurium str. LT2) (protein)
chain: MSSTLREASKDTLQAKDKTYHYYSLPLAAKSLGDIARLPKSLKVLLENLLRWQDGESVTDEDIQALAGWLKNAHADREIAWRPARVLMQDFTGVPAVVDLAAMREAVKRLGGDTSKVNPLSPVDLVIDHSVTVDHFGDDDAFEENVRLEMERNHERYMFLKWGKQAFSRFSVVPPGTGICHQVNLEYLGKAVWSELQDGEWIAYPDSLVGTDSHTTMINGLGVLGWGVGGIEAEAAMLGQPVSMLIPDVVGFKLTGKLREGITATDLVLTVTQMLRKHGVVGKFVEFYGDGLDSLPLADRATIANMSPEYGATCGFFPIDAITLEYMRLSGRSDDLVELVETYAKAQGMWRNPGDEPVFTSTLELDMGDVEASLAGPKRPQDRVALGDVPKAFAASAELELNTAQRDRQPVDYTMNGQPYQLPDGAVVIAAITSCTNTSNPSVLMAAGLLAKKAVTLGLKRQPWVKASLAPGSKVVSDYLAQAKLTPYLDELGFNLVGYGCTTCIGNSGPLPEPIETAIKKGDLTVGAVLSGNRNFEGRIHPLVKTNWLASPPLVVAYALAGNMNINLATDPLGYDRKGDPVYLKDIWPSAQEIARAVELVSSDMFRKEYAEVFEGTEEWKSIQVESSDTYGWQSDSTYIRLSPFFDEMQAQPAPVKDIHGARILAMLGDSVTTDHISPAGSIKPDSPAGRYLQNHGVERKDFNSYGSRRGNHEVMMRGTFANIRIRNEMLPGVEGGMTRHLPGTEAMSIYDAAMLYQQEKTPLAVIAGKEYGSGSSRDWAAKGPRLLGIRVVIAESFERIHRSNLIGMGILPLEFPQGVTRKTLGLTGEEVIDIADLQNLRPGATIPVTLTRSDGSKETVPCRCRIDTATELTYYQNDGILHYVIRNMLN
For B1, the Km [4] was 22 ± 2 µM, the Vmax [4] was 86 µM/min and the kcat [4] was 62.3 ± 1.45 s⁻¹. It also gave a kcat/Km [4] of 2.83e+06 M⁻¹ s⁻¹.

B2: Shewanella oneidensis MR-1 PrpF K73E variant (SoPrpF^K73E) (enzyme)
chain: MSNKLFPPQIKVAATYMRGGTSKGVFFRLQDLPEAAQVPGPARDALLLRVIGSPDPYAKQIDGMGGATSSTSETVILSHSSKANHDVDYLFGQVSIDKPFVDWSGNCGNLTAAVGAFAISNGLIDAARIPRNGVCTVRIWQANIGKTIIAHVPITDGAVQETGDFELDGVTFPAAEVQIEFMNPAADDDGEGGCMFPTGNLVDVLEVPGIGRFNATMINAGIPTIFINAEDLGYTGTELQDDINSDNAALAKFETIRAHGALRMGLIKHIDEAASRQHTPKIAFVAPPKSYASSSGKTVAAEDVDLLVRALSMGKLHHAMMGTAAVAIGTAAAIPGTLVNLAAGGGEKEAVRFGHPSGTLRVGAQAVQENGEWTVIKAIMSRSARVLMEGFVRVPKP
notes: PrpF (2-methylaconitate isomerase) of Shewanella oneidensis MR-1, with the substitution K73E; prpF+ cloned into pTEV4 (template pPRP196); also called Apo-SoPrpF^K73E; prpF258; source: E. coli, plasmid pPRP221 (pTEV4), IPTG-induced, purified (Maxwell 16 system)
B2: binds [5].

B3: SeAcnB (Salmonella enterica subsp. enterica serovar Typhimurium str. LT2) (protein)
chain: MLEEYRKHVAERAAQGIVPKPLDATQMAALVELLKTPPVGEEEFLLDLLINRVPPGVDEAAYVKAGFLAAVAKGDTTSPLVSPEKAIELLGTMQGGYNIHPLIDALDDAKLAPIAAKALSHTLLMFDNFYDVEEKAKAGNEYAKQVMQSWADAEWFLSRPPLAEKITVTVFKVTGETNTDDLSPAPDAWSRPDIPLHAQAMLKNAREGIEPDQPGVVGPIKQIEALQKKGYPLAYVGDVVGTGSSRKSATNSVLWFMGDDIPNVPNKRGGGLCLGGKIAPIFFNTMEDAGALPIEVDVSNLNMGDVIDVYPYKGEVRNHETGELLATFELKTDVLIDEVRAGGRIPLIIGRGLTTKAREALGLPHSDVFRQAKDVAESSRGFSLAQKMVGRACGVKGIRPGAYCEPKMTSVGSQDTTGPMTRDELKDLACLGFSADLVMQSFCHTAAYPKPVDVTTHHTLPDFIMNRGGVSLRPGDGVIHSWLNRMLLPDTVGTGGDSHTRFPIGISFPAGSGLVAFAAATGVMPLDMPESVLVRFKGKMQPGITLRDLVHAIPLYAIKQGLLTVEKKGKKNIFSGRILEIEGLPDLKVEQAFELTDASAERSAAGCTIKLNKEPIVEYLTSNIVLLKWMIAEGYGDRRTLERRIQGMEKWLADPQLLEADADAEYAAVIDIDLADIKEPILCAPNDPDDARLLSDVQGEKIDEVFIGSCMTNIGHFRAAGKLLDNHKGQLPTRLWVAPPTRMDAAQLTEEGYYSVFGKSGARIEIPGCSLCMGNQARVADGATVVSTSTRNFPNRLGTGANVFLASAELAAVAALIGKLPTPEEYQTYVAQVDKTAVDTYRYLNFDQLSQYTEKADGVIFQTAV
For B3, the Km [4] was 17 ± 3 µM, the Vmax [4] was 21 µM/min and the kcat [4] was 34.9 ± 1.67 s⁻¹. For the same molecule, the kcat/Km [4] was 2.05e+06 M⁻¹ s⁻¹.
